Source: the supplement of paper PMC7125110
± gives the standard error. Fewer inactive variants are shown than the library holds.

B1: glmS ribozyme (parent)
chain: AUAAAAGCGCCAGAACUACAGAAAUGUAGUUGACGAGGAGGAGGUUUAUCGAAUUUUCGGCGGAUGCCUCCAAA

Variants of: B1
Assay: self-cleavage kobs at 2500 uM GlcN6P; higher = faster cleavage; RNA array
Conditions: with glucosamine-6-phosphate
Method in brief: (§1)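 Barcoded ribozyme variants on sequenced MiSeq chips were transcribed in situ by E. coli RNA polymerase and followed at 37 °C through a hybridised Cy3 probe. Glucosamine-6-phosphate at 40 μM to 10 mM in HEPES/KCl/Mg(OAc)2 buffer was flowed in, and tiles were imaged over ~14 h. Signals were normalised to baseline and to non-cleaving reference variants, and per-tile medians were fit to one- or two-exponential decays to give kobs. Weighted Michaelis–Menten fits across concentrations gave kcat and KM.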

Variant	self-cleavage kobs at 2500 uM GlcN6P [s⁻¹]
AUAAAAGCGUCAGAACUACAGAAAUGUAGUUGACGAGGAAGAGGUUUAUCGCAUUUUCGUCGGAUGCCUCCAAA [C10U G40A A52C G60U]	< 1e-05
AUAAAAGCGACAGAACUACAGAAAUGUACUUGACGAGGAGGGGGUUUAUCGAAUCCUCGGCGGAUGCCUUCAAA [C10A G29C A42G U55C U56C C70U]	< 1e-05
AUAAAAGCGUCAGAACUACAGAAAUGUAGUUGACGGGGAGUAGGUUUAUCGAAUUUUCUGCGGAUGCAUCCAAA [C10U A36G G41U G59U C68A]	< 1e-05
AUAAAAGCGACAGAACUACAGAAAUGUAGUUGACGAGGAGGAGUUUUAGCGAACUUUCGUCGGAUGUCUCCAAA [C10A G44U U49G U54C G60U C67U]	< 1e-05
AUAAAAGCUCCAGAACUACAGAAAUGUAGUAGACGAGGAGGAGGUUUAUCGAAUUUUCGGCGGAUGACUUCAAA [G9U U31A C67A C70U]	< 1e-05
AUAAAAGCUCCAGAACUACAGAAAUGUAGUUGACUACGAGGAGGUUUAUCCAAUUUUCGGCGGAUGCCUCCAAA [G9U G35U G37C G51C]	< 1e-05
AUAAAAGCGUCAGAACUACAGAAAUGUAGUUUACGAGGAGGAGGUUUAUCGAAUUUUCGGCGGAUGCCACCAAA [C10U G32U U69A]	4.03e-05 ± 1.7e-05
AUAAAAGCGGCAGAACUACAGAAAUGUAGUUGACGAGGAGGGAGUUUAUCGAAUUUUCGGCGGAUGCCUCCAAA [C10G A42G G43A]	< 1e-05
AUAAAAGCGGCAGAACUACAGAAAUGUAGUUUACGAGGAGGAGGUUUAUCGAAUUUUCGGCUGAGGCCUCCAAA [C10G G32U G62U U65G]	< 1e-05
AUAAAAGCUCCAGAACUACAGAAAUGUAGUGGACGAGGAGGAGUUUUAUCGAAUUUUCGGUGGAUGCCUCCAAA [G9U U31G G44U C61U]	< 1e-05
AUAAAAGCGUCGGAGCUACAGAAAUGUACUUGAAGAGGAGGAGGUUUAUCGAAUUUUCGGCGGAUGCCUCCAAA [C10U A12G A15G G29C C34A]	< 1e-05
AUAAAAGCGUCAGAACUACAGAAAUGUAGUUGUCGAGGACGAGGUUUAUUGAAUUUUCGGCGGAUGCCUCCAAA [C10U A33U G40C C50U]	< 1e-05
AUAAAAGCGGCAGAACUACAGAAAUGUAGUUGAUGAUGAGGGGGUUUAUCGAAUUUUCGGCGGAUGCCUCCAAA [C10G C34U G37U A42G]	< 1e-05
AUAAAAGCGGCAGAACUACAGAAAUGUAGUUGAAGAAGAGGAGGUUUAUCGAAUUUUCGUCGGAUGCCUCCAAA [C10G C34A G37A G60U]	< 1e-05
AUAAAAGCGUCCGAACUACAGAAAUGUAGUUGACGAGGAGGAGGUUUAUCGAAUUUUCGGCGGAUGCCUACAAA [C10U A12C C70A]	< 1e-05
AUAAAAGCGACAGAUCUACAGAAAUGUAGUUGACGAGGAGGCGCUUUAUCGAAUUAUCGGCGGAUGGCUGCAAA [C10A A15U A42C G44C U56A C67G C70G]	< 1e-05
AUAAAAGCGUCAGAGCUACAGAAAUGUAGUUGACGAGGAGGAGUUUUAUGGAAUUUUCGGCGGAUGCCUCCAAA [C10U A15G G44U C50G]	< 1e-05

Variant	self-cleavage kobs at 2500 uM GlcN6P [s⁻¹]
AUAAAAGCGUCAGAACUACAGAAAUGUAGUUGACGAGGAGGAGGUUUAUCGAGUUUUCGGCGGAUUCGUCCAAA [C10U A53G G66U C68G]	4.34e-05 ± 1.4e-05
AUAAAAGCGACAGAACUACAGAAAUGUAGUUGACAAGGACGAGGUUUAUCGAAUUUUCGGCGGAUGCCUCCAAA [C10A G35A G40C]	< 1e-05
AUAAAAGCGACAGAACUACAGAAAUGUAGUUGACGAGGAGGAGGUUUAUCGAAUUUUCCGCGGAUAACUCCAAA [C10A G59C G66A C67A]	< 1e-05
AUAAAAGCGAAAGAACUACAGAAAUGUAGUUGACGAGGCGGAGGUUUAUCGAAUUUUCGGCGGAUGCCUCCAAA [C10A C11A A39C]	< 1e-05
AUAAAAGCGUCAGAACUACAGAAAUGUAGUUGACGAGGAGGAGGUUUAUCCAAUUUUCUGCGGAUGUCUCCAAA [C10U G51C G59U C67U]	< 1e-05
AUAAAAGCGACAGACCUACAGAAAUGUAGUUGACGAGGAGGCGGUUUAUCGAAUUUUCGGCGGAUGCCUCCAAA [C10A A15C A42C]	< 1e-05
AUAAAAGCGACAUAACUACAGAAAUGUAGUUGACGAGGAGGAGGUUUAUCGAAUUCUCGGCGGAUGCCGCCAAA [C10A G13U U56C U69G]	< 1e-05
AUAAAAGCGGCAGAACUACAGAAAUGUAGUUGACGAGGAGUAGGUUUAUCGAAUUUUCCCCGGAUGCCUCCAAA [C10G G41U G59C G60C]	< 1e-05
AUAAAAGCGUCAGAACUACAGAAAUGUAGUUGACGAGGAGGAGGUUUAUCGAAUUUGCGGCGGAUGUCUUCAAA [C10U U57G C67U C70U]	6.12e-05 ± 2.7e-05
AUAAAAGCGACCGAACUACAGAAAUGUAGAAGACGAGGAGGAGGUUUAUCGAAUUUUCGGCGGAUGCCUCCAAA [C10A A12C U30A U31A]	5.52e-05 ± 2.3e-05
AUAAAAGCGUCAGAACUACAGAAAUGUAGUUGACGUGGAUGAGGUUUAUCGAAUUUUCGGCGGAUGCCUCCAAA [C10U A36U G40U]	< 1e-05
AUAAAAGCUCCAUAACUACAGAAAUGUACUUCGCGAGGAGGAGGUUUAUCGAAUUUUCGGCGGAUGCCUCCAAA [G9U G13U G29C G32C A33G]	< 1e-05
AUAAAAGCGUCAGAAUUACAGAAAUGUAGUUGACGAUAGGGAGGUUUAUGGAAUUUUCGGCGGGCGCCUCCAAA [C10U C16U G37U G38A A39G C50G A64G U65C]	0.000287 ± 0.00013
AUAAAAGCGUCAGAACUACAGAAAUGUAGUUGACGAGGAGGCUGUUUAUCGAAUUUUCGGCGGAUGACUCCAAA [C10U A42C G43U C67A]	< 1e-05
AUAAAAGCGUCAGAAGUACAGAAAUGUAGUUGACGAGGAGGAGGUUUAUCGAAUUUUCGGUGGAUGCCUCUAAA [C10U C16G C61U C71U]	< 1e-05
AUAAAAGCGGCAGAGCUACAGAAAUGUAGUUGAAGAAGAGGAGGUUUAUCGAAUUUUCGGCGGAUGCCUCCAAA [C10G A15G C34A G37A]	< 1e-05
AUAAAAGCGGCAGAACUACAGAAAUGUAGCUGACGAGCAGGAGGUUAAUCGAAUUUUCGGCGGAUGCCUCCAAA [C10G U30C G38C U47A]	< 1e-05

Variants of: B1
Assay: self-cleavage kobs at 10000 uM GlcN6P; higher = faster cleavage; RNA array
Conditions: with glucosamine-6-phosphate
Method in brief: as §1

Variant	self-cleavage kobs at 10000 uM GlcN6P [s⁻¹]
AUAAAAGCGACAGAACUACAGAAAUGUACUUGACGAGGAGGGGGUUUAUCGAAUCCUCGGCGGAUGCCUUCAAA [C10A G29C A42G U55C U56C C70U]	< 1e-05
AUAAAAGCGUCAGAAUUACAGAAAUGUAGUUGACGAUAGGGAGGUUUAUGGAAUUUUCGGCGGGCGCCUCCAAA [C10U C16U G37U G38A A39G C50G A64G U65C]	0.0013 ± 0.0004
AUAAAAGCGUCAGAACUACAGAAAUGUAGUUGACGAGGAGGCUGUUUAUCGAAUUUUCGGCGGAUGACUCCAAA [C10U A42C G43U C67A]	< 1e-05
